Test results: patent US20180044415A1 (AbbVie / Abbott, published 2018)
Positions count from the first letter of the chain named.

T1: human DLL3 (immobilized human DLL3 or h293-hDLL3 cells) (human, UniProt Q9NYJ7 27-492, limits assumed)
T1 construct: the sentence says 'immobilized human DLL3 or h293-hDLL3 cells'
T1 sequence: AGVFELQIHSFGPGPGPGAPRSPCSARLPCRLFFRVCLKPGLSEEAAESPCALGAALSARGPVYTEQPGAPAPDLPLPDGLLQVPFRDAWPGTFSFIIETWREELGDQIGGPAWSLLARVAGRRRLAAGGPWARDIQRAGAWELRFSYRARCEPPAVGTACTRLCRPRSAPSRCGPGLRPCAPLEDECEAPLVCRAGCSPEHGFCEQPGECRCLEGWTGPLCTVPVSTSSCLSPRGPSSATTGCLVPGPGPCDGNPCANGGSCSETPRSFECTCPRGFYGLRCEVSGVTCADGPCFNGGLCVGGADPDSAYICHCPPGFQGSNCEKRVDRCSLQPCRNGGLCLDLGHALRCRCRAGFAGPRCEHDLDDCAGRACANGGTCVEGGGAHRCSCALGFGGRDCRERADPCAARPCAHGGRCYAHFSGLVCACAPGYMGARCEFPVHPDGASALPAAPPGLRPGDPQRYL

B1: SC16.116 (antibody, V domains shown)
VH: QVQLKQSGPGRVQPSQSLSITCTVSGFSLTSNGVHWVRQSPGKGLEWLGVLWSGGSTDYNAAFISRLSISKDNYKSQVFFKMNSLQANDTAIYYCARNNNRYGAMDYWGQGTSVTVSS
VL: DIVMTQSPSSLTVTAGEKVTMSCTSSQSLLTSGNQKNYLTWYQQKPGQPPKLLIYWASTRESGVPDRFTGSGSGTDFTLTISSLQAEDLAVYYCQNDYSLTFGAGTKLELK
notes: murine mAb; variable regions only
B2: SC16.130 (antibody, V domains shown)
VH: EVQLQQSGPELVKPGASVKMSCKASGYTFTSYVMHWVKQKPGQGLEWIGYINPYNDGTEYNEKFKGKATLTSDKSSSTAYMELSSLTSEDSAVYYCARGVYDGYSYFDYWGQGTTLTVSS
VL: DIQLTQSPASLSASVGETVTITCRASGSIHNYLAWYQQKQGKSPQLLVYNAKTLVDGVPSRFSGSGSGTQYSLKINSLQPEDFGYYYCQHFWTTPWTFGGGTKLEIK
notes: as for B1
B3: SC16.136 (antibody, V domains shown)
VH: EVQLQQSGPELVKPGASVKMSCKASGYTFTSYVMHWVKQKPGQGLEWIGYINPYNDGTKYNEKFKGKATLTSDKSSSTAYMELSSLTSEDSAVYYCARDRSGYEDYYGMDYWGQGTSVTVSS
VL: B2 VL with L4M, S28N, Q45H, V55A, Y85S, T93S
notes: as for B1
B4: SC16.122 (antibody, V domains shown)
VH: EVQLVESGGGLVKPGGSLKLSCAASGFTFSDYYMFWVRQTPEKRLEWVATISDGGSYTYFPDSVKGRFTISRDNAQNNLYLQMSSLKSEDTAMYYCARAGTLYAMDYWGQGTSVTVSS
VL: DIVMTQSQKFMSTSVGDRVSVTCKASQNVGTNVAWYQQKPGQSPKVLIYSASYRYSGVPDRFTGSGSGTDFTLTISNVQSEDLAEFFCQQYNSYPLTFGGGTKLEIK
notes: as for B1
B5: SC16.139 (antibody, V domains shown)
VH: EVQLQQSGPELVKPGASVKMSCKASGYTFTNYVMHWVKQKPGQGLEWIGYINPYNDGTKYNEKFKGKATLTSDKSSTTAYMALSSLTSEDSAVYYCAVAYYSNWGFAYWGQGTLVTVSA
VL: DIVMTQSHKFMSTSVGDRVSITCKASQDVNTAVGWYQQKPGQSPKLLIYSASYRYTGVPDRFTGSGSGTDFTFTISSVQAEDLAVYYCQQHYSSPYTFGGGTKLEIK
notes: as for B1
B6: SC16.123 (antibody, V domains shown)
VH: QVALKESGPGILQPSQTLSLTCSFSGFSLSTSGMGVGWIRQPSGKGLEWLAHIWWDDVKRYNPALKSRLTISKDTSSSQVFLKIASVDTADTATYYCARMEDYGSSSYFDFWGHGTTLTVSS
VL: QIVLTQSPAIMSASLGERVTMTCTASSSVSSSYLHWYQQKPGSSPKLWIYSTSNLASGVPARFSGSGSGTSYSLTISSMETEDAATYYCHQYHRSPFTFGSGTKLEIK
notes: as for B1
B7: SC16.118 (antibody, V domains shown)
VH: EVQLQQSGPDLVKPGASVKISCKASGYSFTGYYMHWVKQSHGKSLEWIGRVNPNNGGTSYNQKFKGKAILTADKSSSTAYMELRSLTSEDSAVYYCARGSYDYAEGWGQGTLVTVSA
VL: DIVLTQSPASLAVSLGQRATISCKASQSVDYDGDSYLTWYQQKPGQPPKLLIYAASNLESGIPARFSGSGSGTDFTLNIHPVEEEDAATYYCQQSNEDPYTFGGGTKLEIK
notes: as for B1
B8: SC16.134 (antibody, V domains shown)
VH: B7 VH with S44R, S59N, A72V, Y103N
VL: B7 VL with Y31H, D32A, L37M, T38N
notes: as for B1
B9: SC16.135 (antibody, V domains shown)
VH: QVQLQQSGAELVRPGTSVKVSCKASGYAFTNYLIEWVKQRPGQGLEWIGVINPGSGGTNSNEKFKAKATLTADKSSSTAYMQLSSLTSADSAVYFCARSDYDYAFYAMDYWGQGTSVTVSS
VL: DIKMTQSPSSMYASLGERVTITCKASQDINRYLSWFQQKPGKSPKTLIYRANRLVDGVPSRFSGSGSGQDYSLTISSLEYEDMGIYYCLQYDEFPFTFGSGTKLEIK
notes: as for B1
B10: SC16.124 (antibody, V domains shown)
VH: EVQLQQSGPELVKPGASVKMSCKASGYTFTSYVMHWVKQKPGQGLEWIGYINPYNDGTKYNEKFKGKATLTSDKSSSTAYMELSSLTSEDSAVYYCARGALYYGNYLGYFDVWGAGTTVTVSS
VL: DIQMTQSPASQSASLGESVTITCLASQTIGTWLAWYQQKPGKSPQLLISAATSLADGVPSRFSGSGSGTKFSFKISSLQAEDFVSYYCQQLYSTPWTFGGGTKLEIK
notes: as for B1
B11: SC16.132 (antibody, V domains shown)
VH: QVQLKESGPGLVAPSQSLSITCTVSGFSLTDYGVSWIRQPPGKGLEWLGVVWGGGSTYYNSALKSRLSITKDNSKSQVFLKMNSLQTDDTAMYYCAKQRGQYGAYWGQGTLVTVSA
VL: B10 VL with S49Y
notes: as for B1
B12: SC16.129 (antibody, V domains shown)
VH: B11 VH with V51I, T70S, K81E, M82L, M92I, Q98H, R99Y, Q101H, G103A
VL: B10 VL with S49Y, W96Y
notes: as for B1
B13: SC16.138 (antibody, V domains shown)
VH: B11 VH with T70S
VL: B10 VL with S49Y, A50S
notes: as for B1
B14: SC16.109 (antibody, V domains shown)
VL: QIVLTQSPAIMSASPGEKVTMTCSASSSVSYMYWYQQKPGSSPRLLIYDTSNLASGVPVRFSGSGSGTSFSLTISRMEAEDTATYYCQEWSGNPLTFGDGTKLELK
V domain: QIQLVQSGPELKKPGETVKISCKASGYTFTNYGMNWVKQAPGKGLKWMGWINTYTGEPAYADDFKGRFAFSLETSASAAYLQINNLKNEDTATFFCANMRPTRGFAYWGQGTLGTVSA
notes: as for B1
B15: SC16.121 (antibody, V domains shown)
VH: EVQLVESGGGLVQPKGSLKLSCAASGFTFNTYAMNWVRQAPGKGLEWVARIRIKSNNYATYYADSVKDRFTISRDDSQNMLYLQMNNLKTEDTAVYYCVRQGYSYDWGPWFAYWGQGTLVTVSA
VL: QIVLTQSPAIMSASPGEKVTITCSASSSVSYMHWFQQKPGTSPKLWIYSTSNLASGVPARFSGSGSGTSYSLTISRMEAEDAATYYCQQRSSYPPTFGGGTKLEIK
notes: as for B1
B16: SC16.111 (antibody, V domains shown)
VH: EVQLQQSGPELEKPGASVKISCKASGYSFTGYNMNWVKQSNGKSLEWIGNIDPYYGGSSYKQKFEGKATLTVDKSSSTAYMQLKSLTSEDSAVYYCARGGSNFFDYWGQGTTLTVSS
VL: DIQMTQSPASLAASVGETVTITCRASENIYYSLAWYQQKQGKSPQLLIYNANSLEDGVPSRFSGSGSGTQYSMKINSMQPEDTATYFCKQTYDVPLTFGAGTKLELK
notes: as for B1
B17: SC16.113 (antibody, V domains shown)
VH: DVKLVESGGGLVKPGGSLKLSCAASGFTFSSYTMSWVRQTPEKRLEWVATISSGGSYPYYPDSVKGRFTISRDNAKNTLYLQMSSLKSEDTAMYYCTRDVYDGYSYWGQGTTLTVSS
VL: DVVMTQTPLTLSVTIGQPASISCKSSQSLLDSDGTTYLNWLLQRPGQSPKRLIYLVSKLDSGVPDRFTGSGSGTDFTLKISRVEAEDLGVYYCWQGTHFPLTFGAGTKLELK
notes: as for B1
B18: SC16.115 (antibody, V domains shown)
VH: B17 VH
VL: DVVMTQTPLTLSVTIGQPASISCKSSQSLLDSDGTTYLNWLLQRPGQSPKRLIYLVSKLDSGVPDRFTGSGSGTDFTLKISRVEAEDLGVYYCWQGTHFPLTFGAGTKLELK
notes: as for B1
B19: SC16.110 (antibody, V domains shown)
VH: EVQLQQSGPGLVRTGASVKISCKASGYSFTGYYMHWVKQSHGKSLEWIGYISCYNGATTYNQNFKGKATFIVDTSSSTAYMQFNSLTSEDSAVYYCARSDGGHAMDYWGQGTSVTVSS
VL: NIVMTQTPKFLLVSAGDRVTITCKASQSVSNDVAWYQQKPGQSPKLLIYYASNRYTGVPDRFTGSGYGTDFTFTISTVQAEDLAVYFCQQDYSSPPTFGGGTKLEIK
notes: as for B1
B20: SC16.133 (antibody, V domains shown)
VH: QVQLKESGPGLVAPSQSLSITCTVSGFSLTNYAVHWVRQSPGKGLEWLGVIWSDGSTDYNAAFISRLSISKDNSKSQVFFKMNSLQADDTAMYYCARKKGGWFPWFAYWGQGTLVTVSA
VL: B19 VL with N1S, Y50C, P96L, G100A, I106L
notes: as for B1
B21: SC16.114 (antibody, V domains shown)
VH: EVQLQQSGAELVKPGASVKLSCTASGFNIKDTYIHWVKQRPEQGLEWIGRIDPANGNTKYDPKFQGKATITPDTSSNTAYLQLSSLTSEDTAVYYCARSWRNYGSSFWYFDVWGAGTTVTVSS
VL: QIVLSQSPAILSASPGEKVTMTCRASSSVSYMHWYQQKPGSSPKPWIYATSNLASGVPARFSGSGSGTSYSLTISRVEAEDAATYYCQQWSSNPYTFGGGTKLEIK
notes: as for B1
B22: SC16.117 (antibody, V domains shown)
VH: QVQLKESGPGLVAPSQSLSITCTVSGFSLTNYGVHWVRQPPGKGLEWLGVIWAGGITNYNSALMSRLSISEDNSKSQVFLKMNSLQTDDTAMYYCARNLGPYAMDYWGQGTSVTVSS
VL: DIQMNQSPSSLSASLGDTITITCHVSQNINVWLSWYQQKPGNIPKLLIQKASNLHTGVPSRFSGSGSGTGFTLTISSLQPEDIATYYCQQGQSYPFTFGSGTKLEIK
notes: as for B1
B23: SC16.131 (antibody, V domains shown)
VH: B22 VH
VL: B22 VL
notes: as for B1

target: T1, human DLL3 (immobilized human DLL3 or …); assay: hybridoma screening on immobilized human DLL3 or on h293-hDLL3 cells

Row | binding result | Binder
1 | binds | B1
2 | binds | B2
3 | binds | B3
4 | binds | B4
5 | binds | B5
6 | binds | B6
7 | binds | B7
8 | binds | B8
9 | binds | B9
10 | binds | B10
11 | binds | B11
12 | binds | B12
13 | binds | B13
14 | binds | B14
15 | binds | B15
16 | binds | B16
17 | binds | B17
18 | binds | B18
19 | binds | B19
20 | binds | B20
21 | binds | B21
22 | binds | B22
23 | binds | B23
